Data on 16 sequences can be found in the nanobody polyreactivity screen of Harvey et al. (2022).

A short description of this series: yeast display, Sf9 membrane polyspecificity reagent, FACS + sequencing; frameworks hold sequencing errors. The method, boiled down:
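Galactose-induced (36–48 hours) yeast carrying a synthetic nanobody display library were exposed to 10% biotinylated, detergent-solubilized Sf9 membrane reagent at 4 °C for 1 hour. FACS followed streptavidin microbead enrichment, using low and high (top ~1%) gates for expression (anti-HA) and reagent binding (streptavidin). Colony PCR, MiSeq 2 × 250 sequencing and CDR-length filtering followed. Labels for polyreactivity reflect the gate of origin.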
In the case of “QVQLVESGGGLVQAGGSLRLSCAASGSTFLVYAMGWYRQAPGKEMEFVAAISWSGGSTFYADSVKGRFTISRDNAKNTVYLQMNSLKPVDTAVYYCAARQAGYSGRKLYYWGQGTQVTVSS”, the “polyreactivity (PSR sort gate)” value was “low polyreactivity”.

For the sequence “QVQLVESGGGLVQAGGSLRLSCAASGSTFLVYAMGWYRQAPGKERELVAAITRRSTSTFYADSVKGRFTISRVNAKNTVYLQMNSLKPEDTAVYYWAADTRFISRENYWGQGTQVTVSS”, the “polyreactivity (PSR sort gate)” value is given as “high polyreactivity”.

Take “QVQLVESGGGLVQAGGSLRLSCAASGSTFLVYAMGWYRQAPGKERELVAVIDNGGDTYYADSVKGRFTISRDNAKNTVYLQMNSLKPEDTEVYYCAADLSYLGYWEYDYWGQGTQVTVSS”: the “polyreactivity (PSR sort gate)” value is on record as “low polyreactivity”.

Take “QVQLVESGGGLVQAGGSLRLSCAASGSTFLVYAMGWYRQAPGKERELVAVIDNGGDTYYADSVKGRFTISRDNAKNTVYLQMNSLKPEDTEVYYCAADMSYLGYWEYDSWGQGTQVTVSS”: the “polyreactivity (PSR sort gate)” value is given as “low polyreactivity”.

In the case of “QVQLVESGGGLVQAGGSLRLSCAASGSTFLWNAMGWYRPAPGKERELVAAISYSGGSTYYADSVKGRFTISRDNAKNTVYLQMNSLKPEVTAVYYCAKEWFYDPYPPGYDYWGQGTQVTVSS”, the “polyreactivity (PSR sort gate)” value is “low polyreactivity”.

As to “QVQLVESGGGLVQAGGSLRLSCAASGSTFLYNAMGWYRQAPGKERELVAAISTTGARTNYADSVKGRFTISRDNAKNTVYLQMNSLKPEDTAVYYCKDRRGHYWGQGTQVTVSS”, the “polyreactivity (PSR sort gate)” value is on record as “high polyreactivity”.

“QVQLVESGGGLVQAGGSLRLSCAASGSTFLYNAMGWYRQAPGKERELVAAISWSGGSTYYADSVKGRFTISRDNAKNTVYLQMNSLKPEDTAVYYCNALSVPDYDYWGQGTQVTVSS”: the “polyreactivity (PSR sort gate)” value was “high polyreactivity”.

On to “QVQLVESGGGLVQAGGSLRLSCAASGSTFLYNAMGWYRQAPGKERELVAAITIGGGSTYYADSVKGRFTISRDNAKNTVYLQMNSLKPEDTAVYYCNKGSYYWWDPGSTYIDDNWGQGTQVTVSS”, for which the “polyreactivity (PSR sort gate)” value is on record as “low polyreactivity”.

As for “QVQLVESGGGLVQAGGSLRLSCAASGSTFLYNTMGWSRQAPGKERELVATITSRGDRTYYADSVKGRFPISRENAKNTVYLQMNSLKPEDTADYYCAALLYIRSVGYDYWGQGPQVTVSS”, the “polyreactivity (PSR sort gate)” value is listed as “low polyreactivity”.

For “QVQLVESGGGLVQAGGSLRLSCAASGSTFLYNTMGWYRQAPGKESELVATITSRGDRTYYADSVKGRFTISRDNAKNTVYLQMNSLKPEDTAVYYCNAYGGNYPQSYRYYYWGQGTQVTVSS”, the “polyreactivity (PSR sort gate)” value is reported as “low polyreactivity”.

“QVQLVESGGGLVQAGGSLRLSCAASGSTFLYYAMGWYRQAPGKERELVARITTRVGRTYYADSVKGRFTISRDNAKNTVYLQMNSLKPEDTAVYYCATGGSKEMDYWGQGTQVTVSS”: the “polyreactivity (PSR sort gate)” value is given as “high polyreactivity”.

“QVQLVESGGGLVQAGGSLRLSCAASGSTFLYYAMGWYRQAPGKERELVASITGSGSNTYYADSVKGRFTISRDNAKNTVYLQMNSLKREDTAVYYCATDPQSDIPSWLWYWGEYDYWGHGTQVTVSS”: the “polyreactivity (PSR sort gate)” value is “low polyreactivity”.

With “QVQLVESGGGLVQAGGSLRLSCAASGSTFLYYAMGWYRQAPGKERELVAVITGAGGTNYADSVKGRFTISRDNAKKTVYLQMNSLKPEDTAVYYCAARSPGTRWGDYDYWGQGTQVTVSS”, the “polyreactivity (PSR sort gate)” value is “low polyreactivity”.

Take “QVQLVESGGGLVQAGGSLRLSCAASGSTFLYYTMGWYRQAPGKERELVAAITSGGDSNYADSVKGRFTISRDNAKNTVYLQMNSLKPEDTAVYYCNAEYTWSGTKIYTYKYDYWGQGTQVTVSS”: the “polyreactivity (PSR sort gate)” value is “low polyreactivity”.

As for “QVQLVESGGGLVQAGGSLRLSCAASGSTFNFNAMGWYRQAPGKERELVAAISFSGGSTYYADSVKGRFTISRDNAKNTVYLQMNSLKPEDTAVYYCRPYSRGYGYWGQGTQVTVSS”, the “polyreactivity (PSR sort gate)” value is given as “high polyreactivity”.

As to “QVQLVESGGGLVQAGGSLRLSCAASGSTFNGNDMGWYRQAPGKERELVATISDGGRTYYADSVKGRFTISRDNAKNTVYLQRNSLKPEDTAVYYCAAPVYVPRAWFYYWGQGTQVTVSS”, the “polyreactivity (PSR sort gate)” value is “low polyreactivity”.
